{"source": "paper PMC2112520", "target": "125I-PDGF plasma-binding protein of human plasma (about 280,000 mol wt) (human (endogenous in plasma))", "data": [{"substance": "125I-labelled human platelet-derived growth factor II (from UniProt P04085 87-211; P01127 82-190) (ligand)", "values": [{"measurement": "percent of added 125I-PDGF bound", "result": "10 to 20", "unit": "%"}]}]}
